In this experiment the target is T1, CD40 expressed on Ramos [ATCC] cells (UniProt P25942 21-277, limits assumed).
T1 construct: whole, on cells; Target of all flow cytometry and CD95 assays; endogenous CD40 on the Ramos cell line
Kind of experiment: flow cytometry (FACS) on Ramos cells expressing CD40, R-PE anti-human antibody.

Numbering of substitutions follows the chain as printed. In names and notes the source's numbering stands.

T1 sequence (P25942 21-277 limits assumed): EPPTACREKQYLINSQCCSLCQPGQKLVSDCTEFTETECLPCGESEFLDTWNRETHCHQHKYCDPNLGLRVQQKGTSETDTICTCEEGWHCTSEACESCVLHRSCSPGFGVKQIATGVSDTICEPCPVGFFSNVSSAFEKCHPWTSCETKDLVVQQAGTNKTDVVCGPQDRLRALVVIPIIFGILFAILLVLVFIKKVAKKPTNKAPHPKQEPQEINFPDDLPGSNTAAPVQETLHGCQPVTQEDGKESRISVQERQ

B1: 4D11-G[1133] (antibody, V domains shown)
VH: QLQLQESGPGLLKPSETLSLTCTVSGGSISSPGYYGGWIRQPPGKGLEWIGSIYKSGSTYHNPSLKSRVTISVDTSKNQFSLKLSSVTAADTAVYYCTRPVVRYFGWFDPWGQGTLVTVSS
VL: AIQLTQSPSSLSASVGDRVTITCRASQGISSALAWYQQKPGKAPKLLIYDASNLESGVPSRFSGSGSGTDFTLTISSLQPEDFATYYCQQFNSYPTFGQGTKVEIK
notes: also called IgG[1/1/3/3]; N5KG1133; not shown: human IgG1 heavy chain constant region, CH1 and hinge domains (EU 118-237), from vector N5KG1-Val Lark; human IgG3 heavy chain constant region, CH2 and CH3 domains (EU 238-446), from vector N5KG3
Turning to B1, the binding result is reported as “binds”.

B2: 4D11-G3[M397V] (antibody, V domains shown)
VH: B1 VH
VL: B1 VL
notes: One-amino acid variant of 4D11-G3, made on N5KG3-4D11; also called N5KG3-M397V; 4D11-G[M397V]; not shown: human IgG3 heavy chain constant region, from vector N5KG3-4D11
With B2, the binding result is reported as “binds”.

B3: 4D11-G[3313] (antibody, V domains shown)
VH: B1 VH
VL: B1 VL
notes: also called IgG[3/3/1/3]; N5KG3313; not shown: human IgG3 heavy chain constant region, CH1 and hinge domains (EU 118-237), from vector N5KG3; human IgG1 heavy chain constant region, CH2 domain (EU 238-340), from vector N5KG1 by way of N5KG3311; human IgG3 heavy chain constant region, CH3 domain (EU 341-446), from vector N5KG3
As to B3, the binding result is on record as “binds”.

B4: 4D11-G3[I422V] (antibody, V domains shown)
VH: B1 VH
VL: B1 VL
notes: One-amino acid variant of 4D11-G3; also called IgG3[I422V]; N5KG3-1422V; not shown: human IgG3 heavy chain constant region, from vector N5KG3
In the case of B4, the binding result is “binds”.

B5: 4D11-G3[N392K] (antibody, V domains shown)
VH: B1 VH
VL: B1 VL
notes: One-amino acid variant of 4D11-G3; also called IgG3[N392K]; N5KG3-N392K; not shown: human IgG3 heavy chain constant region, from vector N5KG3
With B5, the binding result was “binds”.

B6: 4D11-G3[M358L] (antibody, V domains shown)
VH: B1 VH
VL: B1 VL
notes: One-amino acid variant of 4D11-G3; also called IgG3[M358L]; N5KG3-M358L; not shown: human IgG3 heavy chain constant region, from vector N5KG3
Consider B6, for which the binding result was “binds”.

B7: 4D11-G[3331] (antibody, V domains shown)
VH: B1 VH
VL: B1 VL
notes: also called IgG[3/3/3/1]; N5KG3331; not shown: human IgG3 heavy chain constant region, CH1, hinge and CH2 domains (EU 118-340), from vector N5KG3; human IgG1 heavy chain constant region, CH3 domain (EU 341-446), from vector N5KG1
For B7, the binding result is listed as “binds”.

B8: 4D11-G3[E356D] (antibody, V domains shown)
VH: B1 VH
VL: B1 VL
notes: One-amino acid variant of 4D11-G3; also called IgG3-[E356D]; N5KG3-E356D; not shown: human IgG3 heavy chain constant region, from vector N5KG3
Turning to B8, the binding result is recorded as “binds”.

B9: 4D11-G[3311] (antibody, V domains shown)
VH: B1 VH
VL: B1 VL
notes: also called IgG[3/3/1/1]; N5KG3311; not shown: human IgG3 heavy chain constant region, CH1 and hinge domains (EU 118-237), from vector N5KG3; human IgG1 heavy chain constant region, CH2 and CH3 domains (EU 238-446), from vector N5KG1
On to B9, for which the binding result is recorded as “binds”.

B10: 4D11-G3[R435H] (antibody, V domains shown)
VH: B1 VH
VL: B1 VL
notes: One-amino acid variant of 4D11-G3; also called IgG3[R435H]; N5KG3-R435H; not shown: human IgG3 heavy chain constant region, from vector N5KG3
With B10, the binding result is listed as “binds”.

B11: 341-G [1/1/2/2] (antibody)
heavy: QVQLQQSGPGLVKPSQTLSLTCAISGDSVSSNSATWNWIRQSPSRDLEWLGRTYYRSKWYRDYVGSVKSRIIINPDTSNNQFSLQLNSVTPEDTAIYYCTRAQWLGGDYPYYYSMDVWGQGTTVTVSS
VL: EIVLTQSPATLSLSPGERATLSCRASQSVSSYLAWYQQKPGQAPRLLIYDASNRATGIPARFSGSGSGTDFTLTISSLEPEDFAVYYCQQRSNTFGPGTKVDIK
notes: also called IgG[1/1/2/2]; N5KG1122; not shown: human IgG1 heavy chain constant region, CH1 and hinge domains (EU 118-237), from vector N5KG1-Val Lark; human IgG2 heavy chain constant region, CH2 and CH3 domains (EU 238-446), from vector N5KG2
Take B11: the binding result is “binds”.

B12: 341-G [2/2/2/1] (antibody)
heavy: B11 heavy
VL: B11 VL
notes: also called IgG[2/2/2/1]; N5KG2221; not shown: human IgG2 heavy chain constant region, CH1, hinge and CH2 domains (EU 118-340), from vector N5KG2; human IgG1 heavy chain constant region, CH3 domain (EU 341-446), from vector N5KG1
As to B12, the binding result was “binds”.

B13: 341-G [2/2/1/1] (antibody)
heavy: B11 heavy
VL: B11 VL
notes: also called IgG[2/2/1/1]; N5KG2211; not shown: human IgG2 heavy chain constant region, CH1 and hinge domains (EU 118-237), from vector N5KG2; human IgG1 heavy chain constant region, CH2 and CH3 domains (EU 238-446), from vector N5KG1
B13: the binding result is listed as “binds”.

B14: 341-G [2/2/1/2] (antibody)
heavy: B11 heavy
VL: B11 VL
notes: also called IgG[2/2/1/2]; N5KG2212; not shown: human IgG2 heavy chain constant region, CH1 and hinge domains (EU 118-237), from vector N5KG2; human IgG1 heavy chain constant region, CH2 domain (EU 238-340), from vector N5KG1 by way of N5KG2211; human IgG2 heavy chain constant region, CH3 domain (EU 341-446), from vector N5KG2
As to B14, the binding result is “binds”.

B15: 341-G2Ser[Q274K] (antibody, human IgG2, kappa)
heavy: QVQLQQSGPGLVKPSQTLSLTCAISGDSVSSNSATWNWIRQSPSRDLEWLGRTYYRSKWYRDYVGSVKSRIIINPDTSNNQFSLQLNSVTPEDTAIYYCTRAQWLGGDYPYYYSMDVWGQGTTVTVSSASTKGPSVFPLAPCSRSTSESTAALGCLVKDYFPEPVTVSWNSGALTSGVHTFPAVLQSSGLYSLSSVVTVPSSNFGTQTYTCNVDHKPSNTKVDKTVERKCCVECPPCPAPPVAGPSVFLFPPKPKDTLMISRTPEVTCVVVDVSHEDPEVKFNWYVDGVEVHNAKTKPREEQFNSTFRVVSVLTVVHQDWLNGKEYKCKVSNKGLPASIEKTISKTKGQPREPQVYTLPPSREEMTKNQVSLTCLVKGFYPSDIAVEWESNGQPENNYKTTPPMLDSDGSFFLYSKLTVDKSRWQQGNVFSCSVMHEALHNHYTQKSLSLSPGK
light: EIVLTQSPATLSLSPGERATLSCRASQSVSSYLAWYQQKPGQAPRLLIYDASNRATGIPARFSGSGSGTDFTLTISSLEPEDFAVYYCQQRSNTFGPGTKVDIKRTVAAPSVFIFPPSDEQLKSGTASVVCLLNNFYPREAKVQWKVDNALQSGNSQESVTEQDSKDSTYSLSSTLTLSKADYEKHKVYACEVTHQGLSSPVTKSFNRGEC
notes: Made from the 341-G2Ser expression vector; also called N5KG2Ser-341-Q274K
As for B15, the binding result was “binds”.

B16: 341-G2Ser[V309L] (antibody, human IgG2, kappa)
heavy: B15 heavy with K281Q, V316L
light: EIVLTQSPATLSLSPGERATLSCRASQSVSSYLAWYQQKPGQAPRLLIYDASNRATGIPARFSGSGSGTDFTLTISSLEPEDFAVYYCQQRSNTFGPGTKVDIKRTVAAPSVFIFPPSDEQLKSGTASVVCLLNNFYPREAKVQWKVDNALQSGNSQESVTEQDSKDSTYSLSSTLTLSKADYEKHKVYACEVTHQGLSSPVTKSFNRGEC
notes: Made from the 341-G2Ser expression vector; also called N5KG2Ser-341-V309L
B16: the binding result was “binds”.

B17: 341-G2Ser[G327A] (antibody, human IgG2, kappa)
heavy: B15 heavy with K281Q, G334A
light: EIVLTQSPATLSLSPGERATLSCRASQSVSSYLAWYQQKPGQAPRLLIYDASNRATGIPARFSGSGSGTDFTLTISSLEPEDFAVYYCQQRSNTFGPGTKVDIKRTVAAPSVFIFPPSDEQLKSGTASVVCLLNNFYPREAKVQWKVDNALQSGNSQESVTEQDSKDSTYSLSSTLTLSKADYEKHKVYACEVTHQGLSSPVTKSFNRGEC
notes: Made from the 341-G2Ser expression vector; also called N5KG2Ser-341-G327A
Consider B17, for which the binding result is reported as “binds”.

B18: 341-G2Ser[T339A] (antibody, human IgG2, kappa)
heavy: B15 heavy with K281Q, T346A
light: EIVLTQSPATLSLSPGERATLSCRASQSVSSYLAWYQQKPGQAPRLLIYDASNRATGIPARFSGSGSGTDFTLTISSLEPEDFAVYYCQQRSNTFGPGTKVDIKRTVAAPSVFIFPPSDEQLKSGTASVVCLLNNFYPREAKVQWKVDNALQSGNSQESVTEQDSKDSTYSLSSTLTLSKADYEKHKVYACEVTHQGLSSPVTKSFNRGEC
notes: Made from the 341-G2Ser expression vector; also called N5KG2Ser-341-T339A
Take B18: the binding result is given as “binds”.

B19: 341-G2Ser[F300Y] (antibody, human IgG2, kappa)
heavy: B15 heavy with K281Q, F307Y
light: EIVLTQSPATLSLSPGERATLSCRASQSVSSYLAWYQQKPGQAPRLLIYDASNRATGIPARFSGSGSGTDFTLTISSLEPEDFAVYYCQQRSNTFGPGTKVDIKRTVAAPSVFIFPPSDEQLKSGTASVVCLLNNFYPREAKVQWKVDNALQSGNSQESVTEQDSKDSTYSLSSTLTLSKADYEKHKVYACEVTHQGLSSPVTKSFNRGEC
notes: Made from the 341-G2Ser expression vector; also called N5KG2Ser-341-F300Y
Take B19: the binding result is “binds”.

B20: 341-G2Ser[F296Y] (antibody, human IgG2, kappa)
heavy: B15 heavy with K281Q, F303Y
light: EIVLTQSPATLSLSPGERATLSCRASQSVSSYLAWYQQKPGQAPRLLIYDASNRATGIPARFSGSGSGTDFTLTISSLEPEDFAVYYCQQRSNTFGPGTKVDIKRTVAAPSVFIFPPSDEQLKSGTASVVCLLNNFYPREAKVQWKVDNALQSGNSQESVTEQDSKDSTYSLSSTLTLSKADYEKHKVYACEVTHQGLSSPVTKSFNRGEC
notes: Made from the 341-G2Ser expression vector; also called N5KG2Ser-341-F296Y
With B20, the binding result is given as “binds”.

Values taken from US20080138335A1 (Kyowa Kirin, published 2008).
